In patent US20260274955A1 (JANUX THERAPEUTICS, published 2026):

What follows are binders tested against T1, Anti-CD28 Fab (SEQ ID NOs: 202, 203) (assay: phage ELISA, Fab on plate, CD28 antigen as competitor).
T1 construct: biotinylated and captured on neutravidin coated plates in the phage ELISA
T1 sequence (VH, as listed by the source, chain 1 of 2): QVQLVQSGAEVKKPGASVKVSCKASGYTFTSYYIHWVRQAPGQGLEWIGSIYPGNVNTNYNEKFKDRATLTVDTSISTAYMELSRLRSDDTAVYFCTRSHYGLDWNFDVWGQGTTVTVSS
T1 sequence (VL, as listed by the source, chain 2 of 2): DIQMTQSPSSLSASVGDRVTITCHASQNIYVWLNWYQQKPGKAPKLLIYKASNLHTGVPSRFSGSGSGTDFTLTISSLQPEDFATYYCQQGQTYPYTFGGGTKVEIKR
Protocol: (§1) After panning, phage infected bacteria were plated out and colonies picked into 96 well blocks. Clonal phage was then amplified and separated from bacterial cells via centrifugation.
(§2) Clonal phage were harvested as crude supernatants and screened via standard ELISAs. […] Prior to the addition of clonal phage, wells were incubated with blocking buffer and CD28 antigen or blocking buffer alone. Without washing or aspirating, clonal phage supernatants were then added to the wells and incubated for a short time. Wells were then washed followed by detection of bound phage using a horse radish conjugated anti-M13 antibody. Clonal phage of interest were then sent for sequence analysis.

Row | Binder | Anti-CD28 Fab signal in the presence of CD28
1 | YCDGHAEQYMSKCL [Phage-623] | 0.07
2 | YCAGHSAEYMSKCL [Phage-612] | 0.07
3 | YCEGHSQLYMAKCL [Phage-630] | 0.07
4 | YCDGHLSIYMTKCL [Phage-638] | 0.07
5 | YCDGHQPQYMSKCL [Phage-628] | 0.09
6 | YCEGHSAEYIAKCL [Phage-614] | 0.09
7 | YCEGHSAEYIGKCL [Phage-738] | 0.07
8 | YCDGHSAEYIAKCL [Phage-662] | 0.05
9 | YCSGHLPEYMDKCL [Phage-619] | 0.07
10 | YCDGHMVQYMAKCL [Phage-639] | 0.07
11 | YCEGHHPWYVQKCL [Phage-621] | 0.07
12 | YCDGLFQLYMMKCL [Phage-624] | 0.07
13 | YCDGHLMEYKAKCL [Phage-613] | 0.06
14 | YCEGHMEKYMEKCL [Phage-641] | 0.11
15 | YCEGHLDEYLQKCL [Phage-626] | 0.07
16 | YCDGHLSEYIGKCL [Phage-629] | 0.06
17 | YCDGHAPEYIQKCL [Phage-625] | 0.06

Row | Binder | Anti-CD28 Fab signal in the presence of CD28
18 | YCDGHSPEHMGKCL [Phage-615] | 0.09
19 | YCDGHLALYMWKCL [Phage-637] | 0.17
20 | YCDGHSETYLWKCL [Phage-631] | 0.1
21 | YCDGHMKEYMLKCL [Phage-635] | 0.06
22 | YCNGHLPEYMSKCI [Phage-618] | 0.07
23 | YCDGHSEEFMWKCL [Phage-640] | 0.06
24 | YCAGHAEEYLEKCL [Phage-610] | 0.15
25 | YCEGHLPAYMGKCI [Phage-632] | 0.09
26 | YCDGHVKEYMYKCL [Phage-636] | 0.06
27 | YCDGHSLEYMLKCL [Phage-620] | 0.07
28 | YCDGHDARYMEKCL [Phage-616] | 0.06
29 | YCAGHTSEYMSKCL [Phage-634] | 0.07
30 | YCDGHSPEYMQKCL [Phage-617] | 0.53
31 | YCDGHLPEYMQKCL [Phage-643] | 0.08
32 | YCDGHLQEYMQKCL [Phage-627] | 0.06
33 | YCDGHSHEYMQKCL [Phage-611] | 0.06

Each binder was assayed against T1, Anti-CD28 Fab (SEQ ID NOs: 202, 203) (assay: phage ELISA, Fab on plate;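 also: crude clonal phage supernatants added to wells pretreated with blocking buffer with or without CD28 antigen, then bound phage read out via HRP-linked anti-M13 antibody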).
Protocol: as §1, §2

Row | Binder | Anti-CD28 Fab (SEQ ID NOs: 202, 203) signal
34 | YCDGHAEQYMSKCL [Phage-623] | 1.38
35 | YCAGHSAEYMSKCL [Phage-612] | 1.41
36 | YCEGHSQLYMAKCL [Phage-630] | 1.37
37 | YCDGHLSIYMTKCL [Phage-638] | 1.36
38 | YCDGHQPQYMSKCL [Phage-628] | 1.38
39 | YCEGHSAEYIAKCL [Phage-614] | 1.41
40 | YCEGHSAEYIGKCL [Phage-738] | 1.08
41 | YCDGHSAEYIAKCL [Phage-662] | 1.31
42 | YCSGHLPEYMDKCL [Phage-619] | 1.39
43 | YCDGHMVQYMAKCL [Phage-639] | 1.36
44 | YCEGHHPWYVQKCL [Phage-621] | 1.39
45 | YCDGLFQLYMMKCL [Phage-624] | 1.38
46 | YCDGHLMEYKAKCL [Phage-613] | 1.41
47 | YCEGHMEKYMEKCL [Phage-641] | 1.35
48 | YCEGHLDEYLQKCL [Phage-626] | 1.38
49 | YCDGHLSEYIGKCL [Phage-629] | 1.37
50 | YCDGHAPEYIQKCL [Phage-625] | 1.38

Row | Binder | Anti-CD28 Fab (SEQ ID NOs: 202, 203) signal
51 | YCDGHSPEHMGKCL [Phage-615] | 1.4
52 | YCDGHLALYMWKCL [Phage-637] | 1.36
53 | YCDGHSETYLWKCL [Phage-631] | 1.37
54 | YCDGHMKEYMLKCL [Phage-635] | 1.36
55 | YCNGHLPEYMSKCI [Phage-618] | 1.4
56 | YCDGHSEEFMWKCL [Phage-640] | 1.35
57 | YCAGHAEEYLEKCL [Phage-610] | 1.41
58 | YCEGHLPAYMGKCI [Phage-632] | 1.37
59 | YCDGHVKEYMYKCL [Phage-636] | 1.36
60 | YCDGHSLEYMLKCL [Phage-620] | 1.39
61 | YCDGHDARYMEKCL [Phage-616] | 1.4
62 | YCAGHTSEYMSKCL [Phage-634] | 1.36
63 | YCDGHSPEYMQKCL [Phage-617] | 1.4
64 | YCDGHLPEYMQKCL [Phage-643] | 1.35
65 | YCDGHLQEYMQKCL [Phage-627] | 1.38
66 | YCDGHSHEYMQKCL [Phage-611] | 1.41
